Article PMC2700067, “Intracellular interactions between APOBEC3G, RNA, and HIV-1 Gag: APOBEC3G multimerization is dependent on its association with RNA” (Retrovirology, 2009)
Values belong to the binder of their own block, whether it stands above or below them.

Legend:
Assay in all cases: split reporter (BiFC, NanoBiT); BiFC quantified by flow cytometry: 293T cells co-transfected with 0.25 μg of each BiFC construct and mRFP1, harvested about 14 h after transfection and fixed; percent of mRFP+ cells that are YFP+, and mean intensity of YFP+ cells
Settings in all cases: partners not purified
H65R-CY = biological target: T1, H65R-CY (human, UniProt Q9HC16 1-384, H65R)
T1 construct: APOBEC3G (A3G), human, CD1 mutant H65R; as A3G-CY with the mutation; also called CD1 mutant H65R of A3G-CY; source: HeLa and 293T cells, transfected, in living cells; 293T, transfected, in lysate (co-IP); not shown: CY (YFP residues 173-238), C-terminal, kept

F70A-CY = biological target: T2, F70A-CY (human, UniProt Q9HC16 1-384, F70A)
T2 construct: APOBEC3G (A3G), human, CD1 mutant F70A; as A3G-CY with the mutation; also called CD1 mutant F70A of A3G-CY; source: HeLa and 293T cells, transfected, in living cells; 293T, transfected, in lysate (co-IP); not shown: CY (YFP residues 173-238), C-terminal, kept

Y91A-CY = biological target: T3, Y91A-CY (human, UniProt Q9HC16 1-384, Y91A)
T3 construct: APOBEC3G (A3G), human, CD1 mutant Y91A; as A3G-CY with the mutation; also called CD1 mutant Y91A of A3G-CY; source: HeLa and 293T cells, transfected, in living cells; not shown: CY (YFP residues 173-238), C-terminal, kept

percent of mRFP+ cells that are YFP+ (BiFC) (H65R-CY): < 0.1%
B1: H65R-NY (natural protein, human, UniProt Q9HC16 1-384, looked up)
chain: MKPHFRNTVERMYRDTFSYNFYNRPILSRRNTVWLCYEVKTKGPSRPPLDAKIFRGQVYSELKYRPEMRFFHWFSKWRKLHRDQEYEVTWYISWSPCTKCTRDMATFLAEDPKVTLTIFVARLYYFWDPDYQEALRSLCQKRDGPRATMKIMNYDEFQHCWSKFVYSQRELFEPWNNLPKYYILLHIMLGEILRHSMDPPTFTFNFNNEPWVRGRHETYLCYEVERMHNDTWVLLNQRRGFLCNQAPHKHGFLEGRHAELCFLDVIPFWKLDLDQDYRVTCFTSWSPCFSCAQEMAKFISKNKHVSLCIFTARIYDDQGRCQEGLRTLAEAGAKISIMTYSEFKHCWDTFVDHQGCPFQPWDGLDEHSQDLSGRLRAILQNQEN
notes: APOBEC3G (A3G), human, CD1 mutant H65R; as A3G-NY with the mutation; also called CD1 mutant H65R of A3G-NY; source: HeLa and 293T cells, transfected, in living cells; not shown: NY (YFP residues 1-172), C-terminal, kept

percent of mRFP+ cells that are YFP+ (BiFC) (F70A-CY): < 0.1%
B2: F70A-NY (natural protein, human, UniProt Q9HC16 1-384, looked up)
chain: MKPHFRNTVERMYRDTFSYNFYNRPILSRRNTVWLCYEVKTKGPSRPPLDAKIFRGQVYSELKYHPEMRAFHWFSKWRKLHRDQEYEVTWYISWSPCTKCTRDMATFLAEDPKVTLTIFVARLYYFWDPDYQEALRSLCQKRDGPRATMKIMNYDEFQHCWSKFVYSQRELFEPWNNLPKYYILLHIMLGEILRHSMDPPTFTFNFNNEPWVRGRHETYLCYEVERMHNDTWVLLNQRRGFLCNQAPHKHGFLEGRHAELCFLDVIPFWKLDLDQDYRVTCFTSWSPCFSCAQEMAKFISKNKHVSLCIFTARIYDDQGRCQEGLRTLAEAGAKISIMTYSEFKHCWDTFVDHQGCPFQPWDGLDEHSQDLSGRLRAILQNQEN
notes: APOBEC3G (A3G), human, CD1 mutant F70A; as A3G-NY with the mutation; also called CD1 mutant F70A of A3G-NY; source: HeLa and 293T cells, transfected, in living cells; not shown: NY (YFP residues 1-172), C-terminal, kept

percent of mRFP+ cells that are YFP+ (BiFC) (Y91A-CY): < 0.1%
B3: Y91A-NY (natural protein, human, UniProt Q9HC16 1-384, looked up)
chain: MKPHFRNTVERMYRDTFSYNFYNRPILSRRNTVWLCYEVKTKGPSRPPLDAKIFRGQVYSELKYHPEMRFFHWFSKWRKLHRDQEYEVTWAISWSPCTKCTRDMATFLAEDPKVTLTIFVARLYYFWDPDYQEALRSLCQKRDGPRATMKIMNYDEFQHCWSKFVYSQRELFEPWNNLPKYYILLHIMLGEILRHSMDPPTFTFNFNNEPWVRGRHETYLCYEVERMHNDTWVLLNQRRGFLCNQAPHKHGFLEGRHAELCFLDVIPFWKLDLDQDYRVTCFTSWSPCFSCAQEMAKFISKNKHVSLCIFTARIYDDQGRCQEGLRTLAEAGAKISIMTYSEFKHCWDTFVDHQGCPFQPWDGLDEHSQDLSGRLRAILQNQEN
notes: APOBEC3G (A3G), human, CD1 mutant Y91A; as A3G-NY with the mutation; also called CD1 mutant Y91A of A3G-NY; source: HeLa and 293T cells, transfected, in living cells; not shown: NY (YFP residues 1-172), C-terminal, kept
